Results published in paper PMC12025393, “Neuregulin-1 (NRG1) Binds to the Allosteric Binding Site (Site 2) and Suppresses Allosteric Integrin Activation by Inflammatory Cytokines: A Potential Mechanism of Anti-Inflammatory and Anti-Fibrosis Action of NRG1” (Cells, 2025).
No end group written: not given here.

Biological target: T1, WT NRG1 EGF-like domain
T1 construct: also called NRG1 EGF domain; neuregulin-1; source: endotoxin-free E. coli BL21 (DE3) pLysS Clear-coli, purified (Ni-NTA in 8M urea, re-folded)
T1 chain: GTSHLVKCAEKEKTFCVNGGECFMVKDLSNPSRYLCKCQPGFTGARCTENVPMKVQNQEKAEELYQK
Experiment: ELISA; NRG1 (20 μg/mL in PBS) immobilised to wells, blocked with 0.1% BSA; peptides fused to GST in PBS/Tween20 (0.05%), 1 h at room temperature; HRP-conjugated anti-GST antibody; signals with scrambled β3 site 2 peptide subtracted
Conditions: both partners purified

- binding result: binds
B1: β3 specificity-determining loop (SDL) peptide fused to GST (peptide)
chain: DKPVSPYMYISPPEALENPCYDMKTTCLPMF
modifications: not fully specified (N-terminus); cysteine pairing not given here; also: fused to GST
notes: cDNA fragment subcloned into the BamHI/EcoRI site of pGEX2T; also called β3 SDL peptide; β3-SDL peptide; source: E. coli BL21, purified (Glutathione Sepharose)
